Measured values: US20230141630
Like-named read-outs stand apart in the source and are kept apart here.

What was measured:
[1] = test system: Induro RT (Group II Intron-RT); conditions: [none]; 38 C 5 min then 60 C 30 min
[2] = test system: Induro RT (Group II Intron-RT); conditions: 5'-phosphate primer; 50 C 30 min, 10 mM DTT; peak cDNA 7.2 kb
[3] = test system: Group II Intron-RT (unspecified); conditions: 1 h at 55 C, Induro buffer, 1 ug circRNA, 100 ng RT

UGAGGUAGUAGGUUGUAUAGUUUACUGACCAGGACGACGACA / TGTCGTCGTCCTGGTCAGTA [42 nt circularized small RNA with RT primer]
activity (copies per cDNA) [1]: > 100

GGATTCTAAAACGGATTACCAGGGATTTCAGTCGATGTACACGTTCGTCACATCTCATCTACCTCCCGGTTTTAATGAATACGATTTTGTACCAGAGTCCTTTGATCGTGACAAAACAATTGCACTGATAATGAATTCCTCTGGATCTACTGGGTTACCTAAGGGTGTGGCCCTTCCGCATAGAACTGCCTGCGTCAGATTCTCGCATGCCAGAGATCCTATTTTTGGCAATCAAATCATTCCGGATACTGCGATTTTAAGTGTTGTTCCATTCCATCACGGTTTTGGAATGTTTACTACACTCGGATATTTGATATGTGGATTTCGAGTCGTCTTAATGTATAGATTTGAAGAAGAGCTGTTTTTACGATCCCTTCAGGATTACAAAATTCAAAGTGCGTTGCTAGTACCAACCCTATTTTCATTCTTCGCCAAAAGCACTCTGATTGACAAATACGATTTATCTAATTTACACGAAATTGCTTCTGGGGGCGCACCTCTTTCGAAAGAAGTCGGGGAAGCGGTTGCAAAACGCTTCCATCTTCCAGGGATACGACAAGGATATGGGCTCACTGAGACTACATCAGCTATTCTGATTACACCCGAGGGGGATGATAAACCGGGCGCGGTCGGTAAAGTTGTTCCATTTTTTGAAGCGAAGGTTGTGGATCTGGATACCGGGAAAACGCTGGGCGTTAATCAGAGAGGCGAATTATGTGTCAGAGGACCTATGATTATGTCCGGTTATGTAAACAATCCGGAAGCGACCAACGCCTTGATTGACAAGGATGGATGGCTACATTCTGGAGACATAGCTTACTGGGACGAAGACGAACACTTCTTCATAGTTGACCGCTTGAAGTCTTTAATTAAATACAAAGGATATCAGGTGGCCCCCGCTGAATTGGAATCGATATTGTTACAACACCCCAACATCTTCGACGCGGGCGTGGCAGGTCTTCCCGACGATGACGCCGGTGAACTTCCCGCCGCCGTTGTTGTTTTGGAGCACGGAAAGACGATGACGGAAAAAGAGATCGTGGATTACGTCGCCAGTCAAGTAACAACCGCGAAAAAGTTGCGCGGAGGAGTTGTGTTTGTGGACGAAGTACCGAAAGGTCTTACCGGAAAACTCGACGCAAGAAAAATCAGAGAGATCCTCATAAAGGCCAAGAAGGGCGGAAAGTCCAAACTCGAGTAAGGTTAACCTGCAGGGAAAAAACAAAAAACAAAACGGCTATTATGCGTTACCGGCGAGACGCTACGGACTT / ACTTGCCTGTCGCTCTATCTTCTTTGTTTTTTCCCTGCAGGTTAACCTTACTC [circRNA 1.8 kb with RT primer]
activity (copies per cDNA) [2]: 4

AAAATCCGTTGACCTTAAACGGTCGTGTGGGTTCAAGTCCCTCCACCCCCACGCCGGAAACGCAATAGCCGAAAAACAAAAAACAAAAAAACCCCCCTCTCCCTCCCCCCCTAACGTTACTGGCCGAAGCCGCTTGGAATAAGGCCGGTGTGCGTTTGTCTATATGTTATTTTCCACCATATTGCCGTCTTTTGGCAATGTGAGGGCCCGGAAACCTGGCCCTGTCTTCTTGACGAGCATTCCTAGGGGTCTTTCCCCTCTCGCCAAAGGAATGCAAGGTCTGTTGAATGTCGTAAAAAAACAAAAAACAAAACGGCTATTATGCGTTACCGGCGAGACGCTACGGACTT / TCCAGAGGAACTGCTTCCTTC [circRNA 0.4 kb with DNA primer]
activity [3]: 4.5 µg cDNA
